The values below come from patent JP2006246896A.

The assay concerns the target ヒトEGFレセプター(細胞表面に発現) (human) (UniProt P00533). Kind of assay: cell ELISA on glutaraldehyde-fixed A431 cells, compared with chimeric C225.

B1: 再形成ヒトH225抗体(225RKA/225RHA) (antibody, V domains shown)
VH: EVQLVESGGGLVQPGGSLRLSCAVSGFSLTNYGVHWVRQATGKGLEWLGVIWSGGNTDYNTPFTSRLTISKENAKNSLYLQMNSLRAGDTAVYYCARALTYYDYEFAYWGQGTM
VL: EIVLTQSPATLSLSPGERATLSCRASQSIGTNIHWYQQRPGQAPRLLIKYASESISGIPARFSGSGSGTDFTLTISSLEPEDFAVYYCQQNNNWPTTFGGG
B1: the 相対親和力 (relative to chimeric C225) is 65%.
